This note sets out measurements from patent US20260158064A1 (NANJING PROBIO BIOTECH, published 2026).

In assay [1] the target is human ROR1 expressed on CHO cells (CHO-K1/Human ROR1 stable cells) (human) (UniProt Q01973). The assay is described as follows: flow cytometry, 10 ug/ml on Human ROR1-CHO-K1 cells (curve 1), fluorescent secondary antibody. On the technique in general: In flow cytometry, cells or beads pass a laser one at a time.
In assay [2] the target is mouse ROR1 expressed on CHO cells (CHO-K1/Mouse ROR1 stable cells) (mouse) (UniProt Q9Z139). The experiment in a line: flow cytometry, 10 ug/ml on Mouse ROR1-CHO-K1 cells (curve 2), fluorescent secondary antibody.
Sequence of mouse ROR1 expressed on CHO cells (CHO-K1/Mouse ROR1 stable cells) (mouse) (Q9Z139 30-937): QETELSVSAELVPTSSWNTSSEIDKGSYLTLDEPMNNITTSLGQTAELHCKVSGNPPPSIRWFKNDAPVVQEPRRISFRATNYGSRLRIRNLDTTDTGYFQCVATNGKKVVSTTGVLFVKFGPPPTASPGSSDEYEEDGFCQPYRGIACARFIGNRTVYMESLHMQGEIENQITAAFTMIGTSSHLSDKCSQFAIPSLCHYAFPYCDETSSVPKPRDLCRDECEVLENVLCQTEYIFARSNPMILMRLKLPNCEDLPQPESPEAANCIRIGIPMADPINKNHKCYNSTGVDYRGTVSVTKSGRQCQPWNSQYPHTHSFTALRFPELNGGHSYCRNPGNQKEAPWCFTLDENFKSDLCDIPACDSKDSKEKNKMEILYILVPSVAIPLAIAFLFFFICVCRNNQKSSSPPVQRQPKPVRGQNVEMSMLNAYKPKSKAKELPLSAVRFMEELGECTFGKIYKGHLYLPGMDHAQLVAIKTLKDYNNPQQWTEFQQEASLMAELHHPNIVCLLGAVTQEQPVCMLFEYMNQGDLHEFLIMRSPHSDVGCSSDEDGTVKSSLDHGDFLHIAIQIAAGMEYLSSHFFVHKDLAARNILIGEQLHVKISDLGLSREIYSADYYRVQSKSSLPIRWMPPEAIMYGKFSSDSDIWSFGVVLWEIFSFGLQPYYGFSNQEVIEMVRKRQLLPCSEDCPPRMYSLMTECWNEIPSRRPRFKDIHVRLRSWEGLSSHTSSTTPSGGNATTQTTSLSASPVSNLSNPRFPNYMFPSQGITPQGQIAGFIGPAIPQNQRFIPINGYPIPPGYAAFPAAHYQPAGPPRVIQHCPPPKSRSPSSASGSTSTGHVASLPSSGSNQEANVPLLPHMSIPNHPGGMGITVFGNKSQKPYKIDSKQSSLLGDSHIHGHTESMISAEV
The target in assay [3] is human ROR1 expressed on CHO cells (CHO-K1/Human ROR1 stable cells) (human) (UniProt Q01973). The experiment in a line: flow cytometry, 10 ug/ml on Human ROR1-CHO-K1 cells (curve 1), fluorescent secondary antibody. This is another data set of the same source.
In assay [4] the target is mouse ROR1 expressed on CHO cells (CHO-K1/Mouse ROR1 stable cells) (mouse) (UniProt Q9Z139). The experiment in a line: flow cytometry, 10 ug/ml on Mouse ROR1-CHO-K1 cells (curve 2), fluorescent secondary antibody. The source holds these as a separate data set.
For assay [5], the target named is human ROR1 expressed on the engineered cell line CHO-K1/ROR1 (human) (UniProt Q01973). The experiment in a line: flow cytometry of CHO-K1_ROR1 cells stained with the PE-labelled antibody; the CHO-K1 row of the same box prints 20.8.
The target is the same in assay [6]. The assay is described as follows: flow cytometry of CHO-K1_ROR1 cells stained with the PE-labelled antibody; the ROR1- gate prints 0.75.
The target of assay [7] is mouse ROR1 expressed on CHO cells (CHO-K1/Mouse ROR1 stable cells) (mouse) (UniProt Q9Z139). The experiment in a line: flow cytometry, 10 ug/ml antibody on Mouse ROR1-CHO-K1 cells (curve 2), fluorescent secondary antibody.
For assay [8], the target named is human ROR1 expressed on CHO cells (CHO-K1/Human ROR1 stable cells) (human) (UniProt Q01973). The assay is described as follows: flow cytometry, 10 ug/ml antibody on Human ROR1-CHO-K1 cells (curve 1), fluorescent secondary antibody.
For assay [9], the target named is human ROR1-His protein (fused with a His protein tag, Acrobiosystems, RO1-H522y) (human) (UniProt Q01973). The experiment in a line: indirect ELISA, antigen coated at 1 ug/ml. A general note: ELISA stands for enzyme-linked immunosorbent assay.
Sequence of human ROR1-His protein (fused with a His protein tag, Acrobiosystems, RO1-H522y) (human) (Q01973 30-403 limits assumed): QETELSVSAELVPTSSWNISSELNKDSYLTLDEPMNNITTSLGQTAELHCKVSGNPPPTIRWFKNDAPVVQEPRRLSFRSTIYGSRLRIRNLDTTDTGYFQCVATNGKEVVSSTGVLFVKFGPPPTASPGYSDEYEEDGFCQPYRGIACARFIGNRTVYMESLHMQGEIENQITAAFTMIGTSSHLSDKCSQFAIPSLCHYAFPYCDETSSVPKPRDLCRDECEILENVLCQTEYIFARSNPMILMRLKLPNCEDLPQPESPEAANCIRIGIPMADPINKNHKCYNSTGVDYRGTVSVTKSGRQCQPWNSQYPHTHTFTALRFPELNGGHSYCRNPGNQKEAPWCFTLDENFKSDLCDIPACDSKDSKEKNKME
Assay [10] addresses human ROR1 Kringle-His domain protein (amino acid sequence at positions 308-395, Acrobiosystems, RO1-H5223) (human) (UniProt Q01973). The experiment in a line: indirect ELISA, antigen coated at 1 ug/ml.
Assay [11] concerns the target T1, human ROR1-His protein (fused with a His protein tag, Acrobiosystems, RO1-H522y) (human, UniProt Q01973 30-403).
T1 construct: also called recombinant human ROR1-His protein; not shown: His tag
The experiment in a line: indirect ELISA, antigen coated at 1 ug/ml. On the procedure: (§1) Indirect ELISA was used to assess the binding capability of the above purified antibodies to human ROR1-related recombinant proteins. ELISA plates (Nunc) were coated with 1 μg/ml of human ROR1-His protein, human ROR1 Frizzled-His domain protein, and human ROR1 Kringle-His domain protein in 100 μl/well of CBS overnight at 4° C. The plates were washed with PBS-T (0.05% Tween) and blocked with 300 μl/well of PBS containing 3% skim milk at 37° C. for 1 hour. Subsequently, the blocking solution was discarded, and 100 μl of purified antibody at 8 μg/ml (about 100 nM) was added to the first well and diluted according to a 3-fold gradient to obtain a total of 11 test concentration gradients. The plates were then incubated for 1 hour at room temperature. The plates were washed 3 times with PBST and incubated with 100 μl/well of horseradish peroxidase-conjugated mouse anti-human IgG Fc fragment (GenScript) for 0.5 hours at 37° C. The plates were washed five times with PBST, a TMB chromogenic solution (GenScript) was then added, and the plates were incubated for 15 minutes at room temperature in the dark. The reaction was stopped by adding 50 μl of 1 M HCl stop solution (Sigma). The plates were read at 450 nm using a microplate reader. FIGS. 1-3 show the results of the ELISA experiment on the binding of 8 positive recombinant antibody clones to ROR1-related antigen proteins, and the EC₅₀ for each antibody is as shown in Table 2 below: the antigen binding capacity of the antibodies tested was all equal to or higher than that of the positive reference antibody R11-scFv.

Assay [12] has as its target T2, human ROR1 Frizzled-His domain protein (amino acid sequence at positions 165-305, Acrobiosystems, RO1-H5222) (human, UniProt Q01973 165-305).
T2 construct: also called Human ROR1 Frizzled-His protein; not shown: His tag
The assay is described as follows: indirect ELISA, antigen coated at 1 ug/ml. On the procedure:
as §1

Assay [13] concerns the target T3, mouse ROR1 expressed on CHO cells (CHO-K1/Mouse ROR1 stable cells) (mouse, UniProt Q9Z139 30-937).
T3 construct: whole, on cells
The experiment in a line: flow cytometry, antibody at 10 ug/ml on CHO cells. On the procedure: (§2) CHO cells expressing human and mouse ROR1 and parental cells as the negative control for detection were collected and washed 3 times with PBS. 2.5×10⁵ test cells and 100 μl of purified antibody at 10 μg/ml were added to a 96-well plate, and the plate was incubated at 4° C. for 1 hour. The cells were then washed 3 times with PBS, 100 μl of iFluor-labeled goat anti-human IgG, an Fcγ-specific fragment antibody, was added, and the plate was incubated at 4° C. for 45 minutes. Finally, the cells were washed 3 times with PBS, and the signals were read using FACS BD Calibur.

Assay [14] concerns the target human ROR1 Frizzled-His domain protein (amino acid sequence at positions 165-305, Acrobiosystems, RO1-H5222) (human) (UniProt Q01973). The assay is described as follows: indirect ELISA, plate coated with human ROR1 Frizzled-His, HRP anti-human IgG Fc, OD450.
Assay [15] addresses T1, human ROR1-His protein (fused with a …). The assay is described as follows: SPR Biacore T200, antibody Fc-captured, antigen as analyte. On the procedure: (§3) The affinity of purified antibodies for human ROR1-related proteins was determined separately using the surface plasmon resonance (SPR) biosensor Biacore T200 (GE Healthcare). The antibodies were immobilized on the sensor chip by the Fc capture method. Human ROR1-related proteins were used as analytes. Data for dissociation (kd) and association (ka) rate constants were obtained using the Biacore T200 evaluation software. The equilibrium dissociation constant (KD) was calculated from the ratio of kd to ka.
Background: In SPR one partner is held on a chip, and binding of the other changes the refractive index at the surface.

In assay [16] the target is T3, mouse ROR1 expressed on CHO cells …. The assay is described as follows: flow cytometry, 10 ug/ml antibody on Mouse ROR1-CHO-K1 cells (curve 2), fluorescent secondary antibody. On the procedure:
as §2

The target in assay [17] is T4, human ROR1 expressed on CHO cells (CHO-K1/Human ROR1 stable cells) (human, UniProt Q01973 30-937).
T4 construct: whole, on cells; also called CHO-K1/ROR1/Luc (Nanjing Probio, Cat #RD00949)
T4 sequence (Q01973 30-937): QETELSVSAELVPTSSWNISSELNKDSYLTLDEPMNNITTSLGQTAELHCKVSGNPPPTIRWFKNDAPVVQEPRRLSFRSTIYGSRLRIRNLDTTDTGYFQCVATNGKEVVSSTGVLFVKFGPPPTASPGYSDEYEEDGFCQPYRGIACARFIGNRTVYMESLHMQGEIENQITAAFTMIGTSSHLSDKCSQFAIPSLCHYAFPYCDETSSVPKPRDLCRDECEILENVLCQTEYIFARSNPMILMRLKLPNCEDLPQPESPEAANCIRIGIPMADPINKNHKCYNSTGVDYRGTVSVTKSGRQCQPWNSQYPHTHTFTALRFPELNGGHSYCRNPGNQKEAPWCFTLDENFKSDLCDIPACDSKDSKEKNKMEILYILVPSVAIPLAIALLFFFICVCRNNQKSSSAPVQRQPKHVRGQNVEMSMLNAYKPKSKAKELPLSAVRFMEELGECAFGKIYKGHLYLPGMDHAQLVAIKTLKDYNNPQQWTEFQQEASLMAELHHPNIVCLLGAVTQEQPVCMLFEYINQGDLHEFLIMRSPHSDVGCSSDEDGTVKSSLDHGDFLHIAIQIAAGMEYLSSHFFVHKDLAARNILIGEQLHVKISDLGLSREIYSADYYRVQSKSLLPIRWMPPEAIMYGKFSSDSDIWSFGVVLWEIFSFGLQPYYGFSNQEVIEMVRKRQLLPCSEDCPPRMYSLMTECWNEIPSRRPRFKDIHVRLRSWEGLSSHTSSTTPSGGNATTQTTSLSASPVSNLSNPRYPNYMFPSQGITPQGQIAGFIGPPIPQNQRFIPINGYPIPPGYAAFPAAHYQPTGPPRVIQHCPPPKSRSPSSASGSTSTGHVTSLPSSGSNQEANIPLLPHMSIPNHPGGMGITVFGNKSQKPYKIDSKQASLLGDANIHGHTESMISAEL
The experiment in a line: flow cytometry, 10 ug/ml antibody on Human ROR1-CHO-K1 cells (curve 1), fluorescent secondary antibody. On the procedure:
as §2

Assay [18] deals with T5, human ROR1 Kringle-His domain protein (amino acid sequence at positions 308-395, Acrobiosystems, RO1-H5223) (human, UniProt Q01973 308-395).
T5 construct: also called Human ROR1 Kringle-His protein; recombinant human ROR1 Kringle-His protein; not shown: His tag
T5 sequence (Q01973 308-395 limits assumed, form in doubt): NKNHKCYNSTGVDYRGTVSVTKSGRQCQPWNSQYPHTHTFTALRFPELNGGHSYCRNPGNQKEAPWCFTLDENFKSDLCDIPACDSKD
The experiment in a line: indirect ELISA, antigen coated at 1 ug/ml. On the procedure:
as §1

Assay [19] deals with T2, human ROR1 Frizzled-His domain protein …. The assay is described as follows: SPR Biacore T200, antibody Fc-captured, antigen as analyte. On the procedure: as §3

T1 sequence (Q01973 30-403 limits assumed): as the sequence (Q01973 30-403 limits assumed) above
T3 sequence (Q9Z139 30-937): as the sequence (Q9Z139 30-937) above
T2 sequence (Q01973 165-305 limits assumed, form in doubt): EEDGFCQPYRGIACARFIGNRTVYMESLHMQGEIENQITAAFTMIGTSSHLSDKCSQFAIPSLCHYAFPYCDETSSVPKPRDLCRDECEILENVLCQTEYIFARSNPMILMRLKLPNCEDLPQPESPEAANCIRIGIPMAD
Sequence of human ROR1 expressed on CHO cells (CHO-K1/Human ROR1 stable cells) (human) (Q01973 30-937): as the sequence (Q01973 30-937) above
Sequence of human ROR1 Frizzled-His domain protein (amino acid sequence at positions 165-305, Acrobiosystems, RO1-H5222) (human) (Q01973 165-305 limits assumed, form in doubt): as the sequence (Q01973 165-305 limits assumed, form in doubt) above
Sequence of human ROR1 Kringle-His domain protein (amino acid sequence at positions 308-395, Acrobiosystems, RO1-H5223) (human) (Q01973 308-395 limits assumed, form in doubt): as the sequence (Q01973 308-395 limits assumed, form in doubt) above

Human IgG (antibody): the Geometric Mean : Alexa Fluor 647-H was determined as 286 in [1], 93.3 in assay [2], 137 in assay [3] and 135 in assay [4].
In assay [5], “PE anti-human ROR1 Antibody (BioLegend, Cat #357804)” showed a Median : PE-H of 13100. The ROR1+ gate, percent of cells in assay [6] was found to be 99.2.
Turning to Positive Ab- Cirmtuzumab (antibody), the Geometric Mean : Alexa Fluor 647-H in assay [7] worked out at 32600; in assay [8], 69000.
Turning to Positive reference antibody R11-scFv, the EC50 (usually the concentration needed to bring the measured effect to its halfway point) in [9] turned out to be 0.104 µg/mL; in assay [10], 1.17 µg/mL.

B1: single domain antibody AHP15547 (Fc fusion)
chain: AVQLVDSGGGSVQPGESLTLSCTGSARFLSNYGMGWYRQFPGKMREMVAYETNRGNKRYAESVKGRFRIARDAAKTTVYLEMNSLKPEDTAVYYCNAESSGWGRRNYWGQGTQVTVSS
notes: VHH expressed from pcDNA3.4-Fc (HuIgG1); not shown: human IgG1 Fc of the pcDNA3.4-Fc (HuIgG1) expression vector
Take B1: the EC50 in assay [11] was 0.0105 µg/mL; in assay [12] it was 0.0165 µg/mL. The binding result in [13] is “binds”.

B2: single domain antibody AHP15768 (Fc fusion)
chain: QVQLVESGGGSVQAGGSLRLSCAVSGRSISLYNMGWFRQAPGKEREFVSAINWSGGRTYYADSVKGRFTISRNNAKNTMYLQMNSLKPEDTATYYCAVDVEGWFRVSGDAAGYDYWGQGTQVTVSS
notes: as for B1
Molecule B2 showed an EC50 in [11] of 0.0203 µg/mL. Further, in [13], the binding result is given as “binds”. Further, the EC50 (read off the curve) (as a rule, the concentration needed to bring the measured effect to its halfway point) in [14] worked out at 0.1 µg/mL.

B3: single domain antibody AHP15776 (Fc fusion)
chain: QVQLVESGGGLVQPGGSLTLSCAASQSISSIYLLGWYRQAPGKERESVARITTSGTTTYIADSVKGRFTLSRDNAKNTMYLQMNSLKPEDTAVYYCNVPFLVATARGNAYWGQGTQVTVSS
notes: as for B1
Take B3: the EC50 is 0.0109 µg/mL in [11] and 0.023 µg/mL in assay [12]. Also, in assay [13], the binding result is “binds”.

B4: single domain antibody AHP15773 (Fc fusion)
chain: EVQLVESGGGLVQPGGSLRLSCLASGSDFSDSAMGWYRQAPGKQREFVAAIGAGGITTYADSVKGRFTISRDSAKNIVYLQMSSLSPEDTAVYFCNFAPGWYPPGYQYWGQGTQVTVSS
notes: VHH expressed from pcDNA3.4-Fc (HuIgG1); also called AHP15773-VHH; not shown: human IgG1 Fc of the pcDNA3.4-Fc (HuIgG1) expression vector
Turning to B4, in assay [15], the Kd (in general, the equilibrium constant for the complex coming apart) worked out at 757 nM; the koff (usually a measure of how fast the partners let go of each other) was determined as 0.117 s⁻¹; the kon (commonly the second-order rate constant of association) amounted to 155000 M⁻¹ s⁻¹. The “Geometric Mean : Alexa Fluor 647-H” value in assay [16] came out at 54900. Moreover, the EC50 in assay [11] was found to be 0.0155 µg/mL. Further, in [17], the “Geometric Mean : Alexa Fluor 647-H” value turned out to be 33400. In addition, the EC50 (read off the curve) in assay [14] is 0.07 µg/mL.

B5: single domain antibody AHP15580 (Fc fusion)
chain: QVQLVESGGGVVQPGGSLRLSCAASGFVLRVNTVSWYRQAPGKQRELVALITSESNEYYDDSVKGRFTISRDNAKNTIYLHMNSLKPEDTGVYFCNFITTWGQGTQVTVSS
notes: as for B1
Take B5: the EC50 in assay [11] was determined as 0.0407 µg/mL; in [18], 0.0294 µg/mL. The binding result in assay [13] was “binds”.

B6: single domain antibody AHP15662 (Fc fusion)
chain: EVQLVESGGGLVQPGGTLRLSCAASGSISRFYAVGWYRQAPGKQRELVARISSGGSTYYADSVKGRFTISINNSKNTVYLQMNNLKPEDTAVYYCNARNLWGQGTQVTVSS
notes: VHH expressed from pcDNA3.4-Fc (HuIgG1); also called AHP15662-VHH; not shown: human IgG1 Fc of the pcDNA3.4-Fc (HuIgG1) expression vector
For the molecule B6, the Kd in assay [19] is 550 nM. For the same molecule, the koff in assay [19] was determined as 0.19 s⁻¹. The same molecule returned a kon in [19] of 345000 M⁻¹ s⁻¹. Moreover, the “Geometric Mean : Alexa Fluor 647-H” value in assay [16] is 75600; in [17], 56400. The 50% effective concentration (EC50) in [11] and in assay [12] was 0.0105 µg/mL each time.

B7: single domain antibody AHP16026 (Fc fusion)
chain: QVQLVESGGGLVQPGGSLRLSCAVLGSIEQINDINYYRWYRQPPGKQRDLVASINNSGELIYADSVKGRFFISRDKYTVYLEMRSLKAEDTAVYYCNAQDRGEYWGRGTQVTVSS
notes: as for B1
On to B7, for which, in [18], the EC50 was determined as 1.91 µg/mL.
